US20030162275A1, “Dog flavin-containing monooxygenase” (priority 2002, published 2003)

Assay: Enzyme activity assay (MPT S-oxidase activity of expressed FMO1 polypeptides in Sf-9 cell microsomes)
Type: biochemical, dog
Conditions: 25 ug Sf-9 cell microsomal protein, 1 mM NADPH, 0.1 M tricine, 37° C., 10 minutes, HPLC detection of MPT sulfoxide at 240 nm
Description: Examples of particular variants of polypeptides of the invention include polypeptide of SEQ ID NO: 2 and SEQ ID NO: 4. […] This enzyme assay represents a single known method for the detemination of enzyme activity of various FMOs. Briefly, the methyl-p-tolyl (MPT) S-oxidase activity of the expressed variants of the polypeptide was assayed as a measure of FMO function. […] Incubations included 25 ug of Sf-9 cell (containing the polypeptide) microsomal protein 1 mM NADPH, and 0.1 M tricine. Incubations were started by the addition of MPTS and were conducted at 37° C. for at least 10 minutes. Following termination of the incubation, the supernatant was analyzed by high performance liquid chromatography and the MPT sulfoxide product was detected by absorbance at 240 nm and quantitated using an authentic standard of the sulfoxide metabolite.
An achiral assay method was conducted according to the data sheets provided by Gentest, with some modifications. Based on preliminary determinations of the linearity of metabolite formation with protein concentration and incubation time, incubation conditions were established using 50 μg (tissue microsomes) or 25 μg (Sf-9 cell microsomes) protein, 1 mM NADPH, and 0.1 M tricine in a total volume of 0.25 ml. Samples were incubated for 3 min at 37° C. followed by the addition of substrate (in 1% methanol) to start the reaction. Incubations were terminated after 10 minutes by the addition of 50 μl of acetonitrile, and samples were centrifuged to precipitate protein. The supernatant was analyzed by HPLC, using a 4.6 ×250 mm 5 micron C18 analytical column (Luna™C18(2), Phenomenex, Torrance Calif.) and a 1 ml/min gradient elution of 40:60/methanol:water to 60:40/methanol/water over 8 minutes, followed by substrate elution with 95% methanol. The MPT sulfoxide product was detected by absorbance at 240 nm and quantitated using the authentic standard. Imipramine N-oxidation was measured by substrate-dependent oxidation of NADPH at 340 nm Wyatt et al., 1998, using 25-50 μg of microsomal protein in a total volume of 750 μl.

| Molecule | enzyme activity (MPT S-oxidase activity as a measure of FMO function) |
| --- | --- |
| SEQ ID NO: 2: Amino acid sequence of a variant of dog wild-type FMO1 (protein, listed as Canis familiaris) MAKRVAIVGAGVSGLASIKCCLEEGLEPTCFERSDDLGGLWRFTEHVEGGRASLYKSVVSNSCKEMSCYSDFPFPEDYPNYVPNSQFLEYLKMYANRFSLLKCIRFKTKVCKVTKCPDFTVTGQWEVVTQHEGKQESAIFDAVMVCTGFLTNPHLPLDCFPGINTFKGQYFHSRQYKHPDIFKDKRVLVIGMGNSGTDIAVETSRLAKKVFLSTTGGAWVMSRVFDSGYPWDVVFMTRYQNMFRNSLSTPIVTWLMARKMNSWFNHANYGLVPEDRTQLREPVLNDELPGCIITGKVLIKPSIKEVKENSVVFNNTPKEEPIDIIVFATGYTFAFPFLDETVVKVENGQASLYKYIFPVHLPKPTLAVIGLIKPLGSMIPTGETQARWAVRVLKGINKLPPQSAMTEEVNARKENKPSGFGLCYCKALQSDYITYIDELLTNINAKPNLFSLPLTDPRLALTTFFGPCTPYQFRLTGPGKWKGARNAILTQWDRTFKVTKTRIVQESPTPFASLLKLLSLLALLMAIFQIFL | inactive |
| SEQ ID NO: 4: Amino acid sequence of another variant of dog wild-type FMO1 (protein, listed as Canis familiaris) MAKRVAIVGAGVSGLASIKCCLEEGLEPTCFERSDDLGGLWRFTEHVEEGRASLYKSVVSNSCKEMSCYSDFPFPEDYPNYVPNSQFLEYLKMYANRFSLLKCIRFKTKVCKVTKCPDFTVTGQWEVVTQHEGKQESAIFDAVMVCTGFLTNPHLPLDYFPGINTFKGQYFHSRQYKHPDILKDKRVLVIGMGNSGTDIAVETSRLAKKVFLSTTGGAWVMSRVFDSGYPWDMVFMTRFQNMFRNSLPTPIVTWLMARKMNSWFNHANYGLVPEDRTQLREPVLNDELPGCIITGKVLIKPSIKEVKENSVVFNNTPKEEPIDIIVFATGYTFAFPFLDETVVKVENGQASLYKYIFPVHLPKPTLAVIGLIKPLGSMIPTGETQARWAVRVLKGINKLPPQSAMTEEVNARKENKPSGFGSCYCKALQSDYITYIDELLTNINAKPNLFSLLLTDPRLALTIFFGPCTPYQFRLTGPGKWKGARNAILTQWDRTFKVTKTRIVQESPTPFASLLKLLSLLALLMAIFQIFL | inactive |
| SEQ ID NO: 6: Amino acid sequence of dog wild-type FMO1, expressed using a baculovirus expression system in insect cells (protein, listed as Canis familiaris) MAKRVAIVGAGVSGLASIKCCLEEGLEPTCFERSDDLGGLWRFTEHVEEGRASLYKSVVSNSCKEMSCYSDFPFPEDYPNYVPNSQFLEYLKMYANRFSLLKCIRFKTKVCKVTKCPDFTVTGQWEVVTQHEGKQESAIFDAVMVCTGFLTNPHLPLDCFPGINTFKGQYFHSRQYKHPDIFKDKRVLVIGMGNSGTDIAVETSRLAKKVFLSTTGGAWVMSRVFDSGYPWDMVFMTRFQNMFRNSLPTPIVTWLMARKMNSWFNHANYGLVPEDRTQLREPVLNDELPGCIITGKVLIKPSIKEVKENSVVFNNTPKEEPIDIIVFATGYTFAFPFLDETVVKVENGQASLYKYIFPVHLPKPTLAVIGLIKPLGSMIPTGETQARWAVRVLKGINKLPPQSAMTEEVNARKENKPSGFGLCYCKALQSDYITYIDELLTNINAKPNLFSLLLTDPRLALTIFFGPCTPYQFRLTGPGKWKGARNAILTQWDRTFKVTKTRIVQESPTPFASLLKLLSLLALLMAIFLIFL | active |
